Test results from paper PMC6461089, “Characterization of the phosphotransacetylase-acetate kinase pathway for ATP production in Porphyromonas gingivalis” (Journal of Oral Microbiology, 2019).

B1: PgPta (PGN_1179) (Porphyromonas gingivalis ATCC 33277) (protein)
chain: MDLIQDVIRRAQENKQRIVLPEGLEPRTLEAADRLMADKVVNIILIGNVDSVKAKVAELGLKNLDEAVIIDPNNHPKKQQYTDLLLQIRQKKGLTPEKAAELVENPLYLGCLIVKSGDADGLIAGAQNTTGDVLRPALQVIKTAPGMTSVSGTFLLFTKAKEYGKDGLLLVADCAVIPNPTADELAQIAVATARTAKAIADIEPRVAMLSFSTKGSAKHEMTDKVVEATRMAQEMAPDLLIDGEMQADAALVERVAALKAPGSNVAGKANVLVFPTLEVGNIAYKLVERLGHAEAVGPILQGMAAPVNDLSRGCSVEDIYRMVAITANQAIAAKEQ
notes: full length (domains span residues 1-336), E. coli BL21(DE3), pGEX-6P-1, GST tag cut off by PreScission protease; EC 2.3.1.8
B2: PgAck (PGN_1178) (Porphyromonas gingivalis ATCC 33277) (protein)
chain: MKVLVLNCGSSSVKYKLLEMPKGDVLAQGGVEKLGLPGSFLKLTMPNGEKVVLEKDMPEHTIAVEFILSVLKDDKYGCIKSYEEIDAVGHRLVHGGEKFSNSVEITPEVIAKVEECIPLAPLHNPANLKGVVAIEKLLPGIRQVGVFDTAFFQTMPEHVYRYALPYDMCNKHGVRRYGFHGTSHRYVSARACEILGLDYDKTRIITAHIGNGASIAAIKNGKALDVSLGMTPVEGLMMGTRSGDVDPGVLTFLMEAEGLQAAGISELINKKSGVLGVSGVSSDLREIEDAIKNGNERATLAMTMYDYRIKKYVGAYAAAMGGVDVLVFTGGVGENQYTTREKVCTDMEFMGIVFDSKVNEGMRGKEMVISKPESKVTVIVVPTDEEYMIASDTMTILK
notes: full length (398 residues), E. coli BL21(DE3), pET28a, N-terminal His6 tag cut off by thrombin; homodimer (108 kDa by gel filtration); EC 2.7.2.1

How the values were obtained:
Assay type in all cases: biochemical, Porphyromonas gingivalis
[1] = substrate: CC(=O)SCCNC(=O)CCNC(=O)[C@H](O)C(C)(C)COP(=O)(O)OP(=O)(O)OC[C@H]1O[C@@H](n2cnc3c(N)ncnc32)[C@H](O)[C@@H]1OP(=O)(O)O; assay: acetyl-CoA consumption at A233, Michaelis-Menten fit; settings: 100 mM Tris/phosphate pH 9.0 (phosphate co-substrate), 20 mM KCl, 37°C, acetyl-CoA 50-200 µM
Excerpt: acetyl-CoA consumption at A233, Michaelis-Menten fit on PgPta (PGN_1179)

[2] = substrate: Nc1ncnc2c1ncn2[C@@H]1O[C@H](COP(=O)(O)OP(=O)(O)O)[C@@H](O)[C@H]1O; assay: ATP formation coupled to hexokinase / glucose-6-phosphate dehydrogenase (NADPH, A340), secondary plots; settings: co-substrate AcP (0.0667-0.667 mM, extrapolated), 50 mM Tris/HCl pH 8.0, 1.3 mM MgCl2 (methods also mention MnCl2), 37°C
Excerpt: (§1) ATP formation coupled to hexokinase / glucose-6-phosphate dehydrogenase (NADPH, A340), secondary plots on PgAck (PGN_1178)

[3] = substrate: CC(=O)OP(=O)(O)O; assay: as above; settings: co-substrate ADP (0.267-2.67 mM, extrapolated), 50 mM Tris/HCl pH 8.0, 1.3 mM MgCl2 (methods also mention MnCl2), 37°C
Excerpt: as §1

Protein | Km [1] [µM] | Vmax [1] [µmol/min/mg] | kcat [1] [s⁻¹] | Km [2] [µM] | Vmax [2] [µmol/min/mg] | kcat [2] [s⁻¹] | Km [3] [µM] | Vmax [3] [µmol/min/mg] | kcat [3] [s⁻¹]
B1 | 63.8 ± 7.5 | 2470 ± 105 | 1490 ± 63 |  |  |  |  |  | 
B2 |  |  |  | 188 ± 22 | 145 | 105 ± 1 | 22.2 ± 0.2 | 145 | 105 ± 1
